Results reported in US20230310559A1, “Use of Amylase or Maltose to Treat or Prevent Neurodegeneration” (St. Jude Children's Research Hospital, Inc., priority 2020, published 2023).
Numbering of substitutions follows the chain as printed. Entries after “also recorded” stand apart in the source; their conditions may differ.

B1: Amy-d: other Drosophila amylase, transgenic overexpression (protein, UniProt P81641 19-494, looked up)
Alpha-amylase B: QFDTNYASGRSGMVHLFEWKWDDIAAECENFLGPNGYAGVQVSPVNENAVKDSRPWWERYQPISYKLETRSGNEEQFASMVKRCNAVGVRTYVDVVFNHMAADGGTYGTGGSTASPSSKSYPGVPYSSLDFNPTCAISNYNDANEVRNCELVGLRDLNQGNSYVQDKVVEFLDHLIDLGVAGFRVDAAKHMWPADLAVIYGRLKNLNTDHGFASGSKAYIVQEVIDMGGEAISKSEYTGLGAITEFRHSDSIGKVFRGKDQLQYLTNWGTAWGFAASDRSLVFVDNHDNQRGHGAGGADVLTYKVPKQYKMASAFMLAHPFGTPRVMSSFSFTDTDQGPPTTDGHNIASPIFNSDNSCSGGWVCEHRWRQIYNMVAFRNTVGSDEIQNWWDNGSNQISFSRGSRGFVAFNNDNYDLNSSLQTGLPAGTYCDVISGSKSGSSCTGKTVTVGSDGRASIYIGSSEDDGVLAIHVNAKL
B2: Amy-p: other Drosophila amylase, transgenic overexpression (protein, UniProt P08144 19-494, looked up)
Alpha-amylase A: B1 Alpha-amylase B with Y458N
B3: Amyrel: a secreted amylase enzyme (Drosophila myokine), GENBANK Accession No. NP_477262.1, given by transgenic overexpression (protein, UniProt O18408 20-493, looked up)
Alpha-amylase-related protein: QHNPHWWGNRNTIVHLFEWKWSDIAQECESFLGPRGFAGVQVSPVNENILSAGRPWWERYQPISYKLTTRSGNEEEFGDMVRRCNDVGVRIYVDVLLNHMSGDFDGVAVGTAGTEAEPSKKSFPGVPYTAQDFHPTCEITDWNDRFQVQQCELVGLKDLDQSSDWVRSKLIEFLDHLIELGVAGFRVDAAKHMASEDLEYIYSSLSNLNIDHGFPHNSRPFIFQEVIDHGHETVSRDEYKDLGAVTEFRFSEEIGNAFRGNNALKWLQSWGTDWGFLPSGQALTFVDNHDNQRDAGAVLNYKSPRQYKMATAFHLAYPYGISRVMSSFAFDDHDTPPPQDAQERIISPEFDADGACVNGWICEHRWRQIYAMVGFKNAVRDTEITGWWDNGDNQISFCRGNKGFLAINNNLYDLSQDLNTCLPAGTYCDVISGSLIDGSCTGKSVTVNENGYGYIHIGSDDFDGVLALHVDAKV

What was measured:
[1] = system: Huntingtin-polyQ72-GFP aggregates in the Drosophila retina; assay: Analysis of pathogenic Huntingtin-polyQ72-GFP aggregation in Drosophila retina; assay type: in vivo; details: transgenic overexpression in Drosophila retinas during aging, compared to controls
Procedure: (§1) Cloning of Myokines and Fly Transgenesis. The coding sequences of Drosophila CG4666, CG8093, Amyrel, Ag5r2, Amy-d, and Amy-p were generated as synthetic minigenes and cloned into the pUASTattB vector with the EcoRI and KpnI restriction enzymes. These plasmids were then injected into attP40 and/or attP2 by using the site-specific phiC31 integrase (Markstein, et al. (2008) Nat. Genet. 40(4):476-483) to generate transgenic flies.
Analysis of Pathogenic Huntingtin Aggregation. Pathogenic Huntingtin-polyQ72-GFP protein aggregates (Zhang, et al. (2010) Genetics 184(4):1165-79) were imaged with an epifluorescence microscope and the number and total area of protein aggregates estimated with CELLPROFILER™. This analysis was done with male flies after aging at 25° C. for 30 days, and/or aging at 29° C. for 20 days. A custom-made script was used for image analysis in CELLPROFILER™.
Analysis of Huntingtin-GFP Aggregates in Drosophila Eye. Frozen Drosophila was used for imaging of the eyes using ZEISS SteREO Discovery.V12 microscope at a specific exposure time and consistent settings. The acquired gray scale images were then analyzed for the area occupied by aggregates (Huntingtin-GFP specks) using CELLPROFILER™ 3.0.0 pipeline.

Drosophila heads = assay: Head transcriptome of flies with muscle-specific Amyrel overexpression; assay type: in vivo
Drosophila = assay: Startle-induced negative geotaxis; assay type: in vivo; details: muscle-specific overexpression, compared to isogenic controls
Procedure: Startle-Induced Negative Geotaxis. Startle-induced negative geotaxis was carried out according to established methods. Specifically, flies were tapped and the number of flies that reached the top of the vial was scored after 20 seconds.

[2] = system: Drosophila heads and thoraces; assay: Western blots of detergent-soluble and detergent-insoluble fractions of Drosophila heads and thoraces during aging; assay type: in vivo
Procedure: as §1
Western Blots of Detergent-Soluble and Detergent-Insoluble Fractions. Western blots for detergent-soluble and detergent-insoluble fractions were carried out as previously described (Demontis & Perrimon (2010) Cell 143(5):813-825). In brief, heads and thoraces were dissected from 30 male flies/sample and homogenized in ice-cold PBS with 1% TRITON™ X-100 containing protease and phosphatase inhibitors. Homogenates were centrifuged at 14,000 rpm at 4° C. and supernatants collected (TRITON™ X-100-soluble fraction). The remaining pellet was washed in ice-cold PBS with 1% TRITON™ X-100. The pellet was then resuspended in RIPA buffer containing 8M urea and 5% SDS, centrifuged at 14,000 rpm at 4° C., and the supernatant collected (TRITON™ X-100-insoluble fraction). Detergent-soluble and detergent-insoluble fractions were analyzed on 4-20% SDS-PAGE with anti-ubiquitin (Cell Signaling Technologies P4D1), anti-Ref(2)P/p62 (Abcam), anti-Atg8/GABARAP (Abcam), and/or anti-GFP (Cell Signaling Technologies) antibodies. Ponceau S staining, anti-Tubulin antibodies (Cell Signaling Technologies), and/or anti-actin antibodies were used as loading controls.
Soluble and Insoluble Protein Fractionation from Drosophila Tissues. Thoraces or heads were dissected from 30 male flies and homogenized in 100 μL ice-cold TRITON™ X-100 buffer (1% TRITON™ X-100 in PBS containing protease inhibitor and phosphatase inhibitor) for 5 minutes at highest speed. Homogenates were centrifuged at 14000 rpm at 4° C. for 10 minutes and supernatant collected (TRITON™ X-100-soluble fraction). The remaining pellet was washed in 400 μL of TRITON™ X-100 buffer, twice at 14000 rpm for 5 minutes at 4° C. The pellet was then resuspended in 100 μL 1× RIPA buffer containing 8M urea and 5% SDS at room temperature, centrifuged at 14000 rpm at 4° C. for 10 minutes, and supernatant was collected (TRITON™ X-100-insoluble fraction). Six μL of soluble/insoluble protein extracts were boiled with sample buffer containing DTT and separated by gel electrophoresis.

[3] = system: Drosophila retina with mutant tau^V337M; assay: Age-related retinal degeneration induced by mutant tau V337M; assay type: in vivo; details: overexpression in Drosophila
[4] = Amylase activity assay of fly body homogenates; assay type: in vivo, Drosophila; details: Amyrel overexpression, in comparison with isogenic controls
Procedure: Amylase Activity Assay. Colorimetric detection of amylase activity was performed according to the manufacturer's instructions (Sigma-Aldrich). In brief, five flies were decapitated and placed on ice in a 1.5 ml tube. The decapitated bodies were homogenized in 150 μL of Amylase Assay Buffer (AAB). The homogenate was collected after high-speed centrifugation for 10 minutes. For this assay, 5 μL the body homogenate or standard was added to a well in a 96-well plate and brought up to 50 μL with AAB and water, respectively. A master reaction mix was made to conduct a colorimetric assay, and 100 μL was added to each well. The plate was mixed well using a horizontal shaker. After 2-3 minutes the absorbance was measured at 405 nm.

[5] = system: Drosophila brains and retinas; assay: Whole-mount immunostaining of Drosophila brains and retinas (poly-ubiquitin protein aggregates); assay type: in vivo; details: muscle-specific overexpression with Mhc-Gal4 or Act88F-GS-Gal4, compared to isogenic controls
Procedure: Whole-Mount Immunostaining of Drosophila Brains and Retinas. The immunostaining of brains and retinas was carried out using established methods (Demontis & Perrimon (2009) Development 136(6):983-93; Demontis & Perrimon (2010) Cell 143(5):813-825). In brief, retinas and brains were dissected, fixed for 30 minutes in phosphate-buffered saline (PBS) with 4% paraformaldehyde and 0.2% TRITON⋅ X-100 at room temperature, washed for >3 times in PBS with 0.2% TRITON⋅ X-100 at room temperature, and immunostained overnight at 4° C. with rabbit anti-poly-ubiquitin (FK2; Enzo Life Sciences) and anti-Ref(2)P/p62 antibodies (Abeam). After washes with PBS with 0.2% TRITON⋅ X-100, the samples were incubated for 2 hours at room temperature with secondary antibodies and phalloidin conjugated to a fluorescent dye sold under the tradename ALEXA FLUOR® 635. The samples were subsequently washed, mounted in antifade medium and imaged on a Zeiss LSM 880 confocal microscope.

[6] = Maltose assays of fly hemolymph and bodies; assay type: in vivo, Drosophila; details: Amyrel overexpression, in comparison with isogenic controls
Procedure: Maltose Assays. Flies were decapitated and placed in a perforated 0.6 mL tube resting in a 1.5 mL tube, which was centrifuged at 1700 g for 6 minutes at 4° C. to collect the hemolymph ([…], et al. (2009) Cell Metab. 10:199-207). Equal volumes of hemolymph (1 μL) were used for subsequent determination of maltose levels. To avoid interference from eye pigments (Al-Anzi, et al. (2010) PLoS ONE 5(8):e12353), flies (n=10/biological replicate) were decapitated and homogenized with a Next Advance BULLET BLENDER® and 0.5-mm zirconium beads in 100 μL of maltose assay buffer (MAB). Body homogenates were then collected after centrifugation at maximum speed for 10 minutes to remove cuticle debris. Subsequently, the quantification of maltose concentration in the hemolymph and bodies was done with the maltose assay kit (Sigma-Aldrich), according to manufacturer's instructions. In brief, hemolymph and body homogenates were diluted 1:40 in MAB. […] After 1 hour, the absorbance was read at 570 nm with a Tecan Infinite 200 Pro. Blank (0 maltose standards) readings were subtracted from all readings. Maltose levels were calculated from the standard curve after subtracting the absorbance read in the absence of glucosidase treatment, which accounts for background glucose levels, from the absorbance read in duplicate samples treated with glucosidase.

Molecule	pathogenic huntingtin (Htt-Q72-GFP) aggregates, total area and number of speckles [1]	induction of Hsp23 gene (Drosophila heads)	genes involved in proteostasis, including several chaperones and proteases (Drosophila heads; compared to isogenic controls)	capacity for startle-induced negative geotaxis during aging (Drosophila)	percentage of flies unable to respond to stimulation, increase with aging (Drosophila)	levels of polyubiquitinated proteins in heads ([2]; flies with pathogenic Huntingtin (Htt-polyQ120) expression in the retina, muscle-specific overexpression)	proteostasis in skeletal muscle ([2]; muscle-specific overexpression)	age-related accumulation of proteasome substrates (poly-ubiquitinated proteins, detergent-insoluble fractions) in head tissues ([2]; muscle-specific overexpression, 10, 30 and 60 days)	Atg8 conversion and levels (autophagy) ([2]; muscle-specific overexpression, heads)	age-related neurodegeneration (retinal degeneration, rough eye phenotype) induced by tau^V337M [3]	amylase activity [4]	amount of poly-ubiquitin protein aggregates in the retina and brain in old age [5]	circulating (hemolymph) maltose [6]	whole body maltose [6]
B1	reduced													
B2	reduced													
B3	less so; also recorded: decrease in an age-dependent manner	> 8 fold	induced	preserves the capacity for negative geotaxis	less so	reduced the levels of polyubiquitinated proteins	did not regulate proteostasis in skeletal muscle	reduced the age-related accumulation of proteasome substrates; also recorded: reduced the age-related increase in polyubiquitinated proteins	not significantly modulated	largely prevented	increase	significantly reduced	increase	increase
